Target: FLAG-PPM1G-YLmut (human) (UniProt O15355)
Assay: co-IP; anti-FLAG affinity gel (25 μl), 1-2 mg lysate of transiently transfected HEK293H cells, 1 h at 4°C, lysis buffer 50 mM HEPES-KOH pH 7.5, 50 mM KCl, 2 mM MgCl2, 2 mM EGTA, 5% glycerol, 0.5% NP40; partners detected by Western blot; in Figure 3B cells treated with DMSO or PP242 for 2 h

Chain of UniProt O15355 (O15355 whole entry Y85A/L90A): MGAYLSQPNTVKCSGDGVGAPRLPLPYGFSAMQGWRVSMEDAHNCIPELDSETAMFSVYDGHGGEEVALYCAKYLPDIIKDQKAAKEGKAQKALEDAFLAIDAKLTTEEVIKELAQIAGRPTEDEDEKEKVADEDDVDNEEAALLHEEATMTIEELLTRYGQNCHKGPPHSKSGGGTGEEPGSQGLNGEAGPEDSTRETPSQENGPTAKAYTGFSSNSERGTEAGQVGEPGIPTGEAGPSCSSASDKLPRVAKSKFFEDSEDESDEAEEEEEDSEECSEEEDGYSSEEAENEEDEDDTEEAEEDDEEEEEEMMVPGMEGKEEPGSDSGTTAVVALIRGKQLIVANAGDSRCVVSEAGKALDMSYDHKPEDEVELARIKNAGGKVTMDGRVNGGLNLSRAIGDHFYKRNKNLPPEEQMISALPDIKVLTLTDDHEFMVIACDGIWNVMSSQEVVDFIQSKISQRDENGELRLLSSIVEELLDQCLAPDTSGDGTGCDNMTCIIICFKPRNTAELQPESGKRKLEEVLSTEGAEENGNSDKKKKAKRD

percent decrease of binding against wild-type PPM1G: 80%
Substance: endogenous eIF4E (from UniProt P06730 1-217) (natural protein)

From PMC11306785
